In this assay the target is Mycobacterium tuberculosis RsdA^1-94 (Mycobacterium tuberculosis, UniProt P9WJ71 1-94). The assay can be described thus: SPR.

Broadly, the Kd is the free concentration of one partner at which half of the binding sites on the other are occupied at equilibrium, for simple one-to-one binding.

Chain of Mycobacterium tuberculosis RsdA^1-94 (P9WJ71 1-94): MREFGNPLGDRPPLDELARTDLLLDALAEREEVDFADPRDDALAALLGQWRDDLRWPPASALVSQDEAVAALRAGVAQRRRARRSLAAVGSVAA

B1: -35 promoter binding domain of Mycobacterium tuberculosis σ^D (σ^D4), residues 141-212 (domain or fragment)
chain: MAIEADSVTRMNELLEILPAKQREILILRVVVGLSAEETAAAVGSTTGAVRVAQHRALQRLKDEIVAAGDYA
B1 returned a Kd of 10.3 ± 3.5 µM.

(Values after publication PMC3597663 (Nucleic Acids Research, 2013).)
